In paper PMC5296750:
“And” between values parts separate entries of the source, which are not always exact repeats. Equal entries are not always repeated.

Assays:
[1] = target: Pyrococcus abyssi minichromosome maintenance protein (PabMCM), full-length, devoid of inteins (Pyrococcus abyssi); assay: cryo-EM, reference-free 2D classification; Quantifoil grids with thin carbon, plunge-frozen; ~33,000 particles, Relion 2D classification without imposed symmetry
[2] = target: Pyrococcus abyssi minichromosome maintenance protein (PabMCM), full-length, devoid of inteins (Pyrococcus abyssi); assay: SEC; Superose 6 10/300 GL, 20 mM HEPES pH 7.4, 150 mM NaCl, 0.3 ml/min; apparent molecular weight estimated against gel-filtration standards
[3] = target: Pyrococcus abyssi minichromosome maintenance protein (PabMCM), full-length, devoid of inteins (Pyrococcus abyssi); assay: negative-stain electron microscopy with single particle analysis; 1% uranyl acetate, FEI F20 FEG, 50,000x, MSA classification (IMAGIC-5), 3D reconstruction with EMAN2; map at 22 Å

- stoichiometry N [1]: 8
- stoichiometry N [2]: 8
- stoichiometry N [3]: 8 and 7
Substance: Pyrococcus abyssi minichromosome maintenance protein (PabMCM), full-length, devoid of inteins (enzyme)
